For the data set, the system named is MS2 coat protein. The experiment in a line: apparent KD of MS2 coat protein; designed switch direction (-1 OFF switch, 1 ON switch): -1; higher = weaker reporter binding. An outline of the steps: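 The reported apparent KD is a per-design median over clusters, from curve fits of normalised cluster fluorescence. Protein titrations used SNAP-549-labelled MS2 coat protein, doubled from 0.7 or 1.5 nM to 3 µM, in Tris-HCl pH 7.5 buffer with KCl, MgCl2, BSA, DTT, tRNA and Tween-20, with no input, 200 uM small-molecule ligand, or an oligonucleotide input. The RNA switches were transcribed on Illumina chips by stalled E. coli RNA polymerase.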

Where [1] appears, read: input ligand: microRNA oligo, concentration not stated.
[2] abbreviates: Eterna round: R95, input ligand: FMN 200 uM.
The mark [3] stands for this setting: Eterna round: R95, input ligand: microRNA oligo, concentration not stated.
Setting [4] is: Eterna round: R95, input ligand: none.

With “GCAGCAUAGUUUACUAACUGUUACAUGAGGAUCACCCAUGUCUAGGAUAUGGUCUGGAUUACAGGCCAGAAGGAGACAAGCUGC [Eli exng3 - 034] (Eterna round: R96, puzzle: Exclusion NG 3)”, the “apparent KD of MS2 coat protein” value runs as follows: (input ligand: FMN 200 uM) 14.1 nM; under setting [1], 12.1 nM; (input ligand: none) 16.6 nM.
Regarding “GCAGGCGACUAGGCUCGUCUUAUUUUGAGAAGAUUGAAAACAUGAGGAUCACCCAUGUGUGUGGGAGAGUUGGAGUG [JR_SV3TOV2_Sub012] (puzzle: Sensor v3, turn-off variant 2)”, the “apparent KD of MS2 coat protein” value runs as follows: under setting [2], 268 nM; under setting [3], 346 nM; under setting [4], 475 nM.
“GCAGGUUAAGUCAGGAUAUACCUAUGGAUACAUAGGUAGAAGGGACAUGAGGAUCACCCAUGUGCCUCGCCUGC [Fiskers BMX 4 - 58] (puzzle: Brourd's mod of Exclusion 4)”: the “apparent KD of MS2 coat protein” value under setting [3] was found to be 15.4 nM.
The same measure, in the same setting: under “GCAGGUUAAGUCAGGAUAUACCUAUGGAUACAUAGGUAGAAGGGACAUGAGGAUCACCCAUGUUCCUCACCUGC [Fiskers BMX 4 - 21] (puzzle: Brourd's mod of Exclusion 4)” stands 13.9 nM.
As for “GCAGGUUAAGUCAGGAUAUACCUCUGGAAACAGAGGUAGAAGGGACAUGAGGAUCACCCAUGUUUCUCAUCUGC [Mod of Eli 3 - Jieux - Brourd's mod of Exclusion 4] (Eterna round: R97, puzzle: Brourd's mod of Exclusion 4)”, the “apparent KD of MS2 coat protein” value (input ligand: FMN 200 uM) came to 85.6 nM and the “apparent KD of MS2 coat protein” value (input ligand: none) came to 19.2 nM.
For “GCAGUAUGAGUUAGGAUAUGAUGAUUUUUUUUAUUUCAGAAGGAACUUGAGGAUCACCCAAGUUAAGAUUUGGU [JR_BMEx4_Sub068] (Eterna round: R97, puzzle: Brourd's mod of Exclusion 4)” the same measures were 45.6 nM and 24.6 nM.
As to “GCAGUGCGAGGAUAUACAUGAGGAUCACCCAUGUGAGAAUAAUAAGUGAGGAAGAAAAGUAGAAGGCGCGUUGG [Mat - Exclusion 3 - Mod of Salish D67] (puzzle: Exclusion 3)”, the “apparent KD of MS2 coat protein” value stood at 103 nM under setting [2], 41.1 nM under setting [3] and 46.8 nM under setting [4].
Turning to “GCAUAUGAUGUAGGAUAUGCGAGACAUGAGGAUCACCCAUGUGAGGGAAGGAGAAGGAGAAGAGAGUAGAAGGAUAGAGUGUGA [Default title] (Eterna round: R96, puzzle: Exclusion NG 2)”, the “apparent KD of MS2 coat protein” value is, setting by setting: (input ligand: FMN 200 uM) 83.8 nM; under setting [1], 85.3 nM; (input ligand: none) 85.1 nM.
On to “GCAUGAUACUAGGAUAUCAGCAUACUUCAAUGUUGAGAAGGAGUAACAUGAGGAUCACCCAUGUAUCCAACAUG [Exclusion 6 - 4:a] (puzzle: Exclusion 6)”, for which, under setting [3], the “apparent KD of MS2 coat protein” value was 38.5 nM.
For the sequence “GCAUGUCUUAAGGAUAUGCCUAGGCGUGAGCCGGCAGAAGGUAAGACAUGAGGAUCACCCAUGUUUUCCUAAAA [jl-ex6-4.30 ViennaUCT mod] (Eterna round: R97, puzzle: Exclusion 6)”, the “apparent KD of MS2 coat protein” value was determined as 280 nM (input ligand: FMN 200 uM) and 51.2 nM (input ligand: none).
In the case of “GCCAGAGCAGGAUAUUCAAUAUCUCACAUGAGGAUCACCCAUGUCCAUCGAAAGAUGGAGGGAGAAGGGCUCUGGC [Mat - Exclusion 5 - Eli mod - D92] (puzzle: Exclusion 5)”, the “apparent KD of MS2 coat protein” value under setting [2] was determined as 37.3 nM, the “apparent KD of MS2 coat protein” value under setting [3] was 45.5 nM and the “apparent KD of MS2 coat protein” value under setting [4] was 64.7 nM.
For the sequence “GCCAGAGCAGGAUAUUCAAUAUUCCACAUGAGGAUCACCCAUGUCCUGCGAAAGCAGGAGGGAGAAGGGCUCUGGC [Mat - Exclusion 5 - Eli mod - D91] (puzzle: Exclusion 5)”, under setting [3], the “apparent KD of MS2 coat protein” value came out at 56.2 nM.
Take “GCCAGAGCAGGAUAUUCAGUAUCACACAUGAGGAUCACCCAUGUCUAUCGAAAGAUAGAGGGAGAAGGGCUCUGGC [Mat - Exclusion 5 - Eli mod - D95] (puzzle: Exclusion 5)”: the “apparent KD of MS2 coat protein” value worked out at 28.4 nM under setting [2], 105 nM under setting [3] and 118 nM under setting [4].
The like results for “GCCAGUGCAGGAUAUCUAUAACCCUACAUGAGGAUCACCCAUGUCCAGCGAAAGCUGGAGGGAGAAGGGCACUGGC [Fiskers Ex 5 - 27] (puzzle: Exclusion 5)” were, in that order, 15.5 nM, 17.6 nM and 21.5 nM.
In the case of “GCCAUGUAAGGAUAUAACCGUCUUCAUGAACAAUGAGGAUGUUAGAAGGUACAUGAGGAUCACCCAUGUCCUUC [Eternabot (Original) Solution 6] (Eterna round: R97, puzzle: Exclusion 4)”, the “apparent KD of MS2 coat protein” value by setting is: (input ligand: FMN 200 uM) 15.7 nM; (input ligand: none) 12.5 nM.
With “GCCGAAAGUGUGAGGAUAUACCUAUGGAUACAUAGGUAGAAGGCACAUGAGGAUCACCCAUGUUCCUCAUCGGC [Eli bmx4 4.17] (Eterna round: R97, puzzle: Brourd's mod of Exclusion 4)”, the “apparent KD of MS2 coat protein” value by setting is: (input ligand: FMN 200 uM) 551 nM; (input ligand: none) 92.8 nM.
For “GCCGUCAGUGUGAGGAUAUGCCUAUGGAUACGUAGGCAGAAGGCACAUGAGGAUCACCCAUGUCCUAAGACGGC [JL-BMX4-4.33 Eli mod] (Eterna round: R97, puzzle: Brourd's mod of Exclusion 4)” the same measures were 146 nM and 190 nM.
As for “GCCUCACAUGAGGAUCACCCAUGUCAGGAUAUCUAAGGCGAAGUGCAAGCACCUCGUGAGAGAAGGGACGUCAA [Dienononen] (puzzle: Exclusion 1)”, under setting [3], the “apparent KD of MS2 coat protein” value amounted to 20.9 nM.
Consider “GCCUCACUUGAGGAUCACCCAAGUCAGGAUAUUCACUGAACUGCGUAACAGCUCGGCCGAAGAAGGGAUUCGGG [Leisatat] (Eterna round: R97, puzzle: Exclusion 1)”, for which the “apparent KD of MS2 coat protein” value amounted to 80.8 nM (input ligand: FMN 200 uM) and 78.5 nM (input ligand: none).
The like results for “GCCUUAUCUGUCAGGAUAUACAAUAAAAUAACUUUGUAGAAGGGACAUGAGGAUCACCCAUGUACAUUACAUUG [alecazam24b] (Eterna round: R97, puzzle: Brourd's mod of Exclusion 4)” were, in that order, 63.1 nM and 24.6 nM.
Take “GCGCACCUACCAAAAGGUAGGUCAACAUGAGGAUCACCCAUGUAGGAUAUCGAUUGCUUUGCAGUCGAGAAGGACGUGAUGCGC [JL ENG3 3.80 Mod 15] (Eterna round: R96, puzzle: Exclusion NG 3)”: the “apparent KD of MS2 coat protein” value (input ligand: FMN 200 uM) is 38 nM, the “apparent KD of MS2 coat protein” value under setting [1] worked out at 24.5 nM and the “apparent KD of MS2 coat protein” value (input ligand: none) amounted to 34.3 nM.
The like results for “GCGGACAAGAUGGUGACAUCAGAGACAUGAGGAUCACCCAUGUAGGAUAUCGAUUCGAAACGAAUCGAGAAGGGCAUAGUCCGC [JL denovo 3] (Eterna round: R96, puzzle: Exclusion NG 3)” were, in that order, 460 nM, 190 nM and 224 nM.
On to “GCGGAGUAUGUAGGAUAUCGGUCAGUUUCUGAUCGAGAAGGACAUGAGGAUCACCCAUGUAAAUUGCCCGCUUUGUGGGUCCGC [JL ENG1 3.61] (Eterna round: R96, puzzle: Exclusion NG 1)”, for which the “apparent KD of MS2 coat protein” value amounted to 36.5 nM (input ligand: FMN 200 uM), 13.2 nM under setting [1] and 17.8 nM (input ligand: none).
“GCGUAUGAGCAGGAUAUCCCGCGGGAAUCCAUAGGAGAAGGGCUCACAUGAGGAUCACCCAUGUGGUCCAGAAA [Isisan] (puzzle: Exclusion 6)”: the “apparent KD of MS2 coat protein” value reads like this: under setting [2], 20.2 nM; under setting [3], 16.1 nM; under setting [4], 18 nM.
In the case of “GCUACUCCAGUCAGGAUAUGGAUCGGCUAAAAGACCCAGAAGGGACUUGAGGAUCACCCAAGUAACGGCUCGGG [Soveare] (Eterna round: R97, puzzle: Brourd's mod of Exclusion 4)”, the “apparent KD of MS2 coat protein” value is, setting by setting: (input ligand: FMN 200 uM) 378 nM; (input ligand: none) 54.2 nM.
For “GCUAGAGCAGGAUAUCUAGAUCCACACAUGAGGAUCACCCAUGUAGUCGAAAGACUAAGAAGAGAAGGGCUCUAGC [Omei Ex5 E16] (Eterna round: R97, puzzle: Exclusion 5)” the same measures were 322 nM and 324 nM.
Turning to “GCUCAACAUGAGGAUCACCCAUGUCAGGAUAUGCGAAUUUCAUCAAAAGAUGAAAUUUGCAGAAGGGACUAAGC [Omei Ex1 A32] (Eterna round: R97, puzzle: Exclusion 1)”, the “apparent KD of MS2 coat protein” value is, setting by setting: (input ligand: FMN 200 uM) 114 nM; (input ligand: none) 52.6 nM.
For “GCUCAACAUGAGGAUCACCCAUGUGAGGAUAUGCGAAUUUCAUCAAAAGAUGAAAUUUGCAGAAGGCACUGAGC [Omei Ex1 A35] (Eterna round: R97, puzzle: Exclusion 1)” the same measures were 17.4 nM and 16.5 nM.
For “GCUCACGCAGGAUAUACAUGAGGAUCACCCAUGUUCGAAGGGCGCGGGUACAAAGUCUGUAGAAGGGCGAAAAU [Getiin] (Eterna round: R97, puzzle: Exclusion 3)” the same measures were 26.1 nM and 19.8 nM.
For “GCUGCAAAUGUAGGAUAUCUGCACGUUUAGUGCAGAGAAGGACAUGAGGAUCACCCAUGUAGAUCAGCAGCAAUUAAUUUAAUU [ENG1/5-A2] (Eterna round: R96, puzzle: Exclusion NG 1)”, the “apparent KD of MS2 coat protein” value runs as follows: (input ligand: FMN 200 uM) 480 nM; under setting [1], 40.8 nM; (input ligand: none) 45.2 nM.
With “GCUGGUCAAGGAUAUACAUGAGGAUCACCCAUGUGAUCAGCAGUCCUCGGACUGCAAUGUAGAAGGUGACCAGC [E3/1-C1] (Eterna round: R97, puzzle: Exclusion 3)”, the “apparent KD of MS2 coat protein” value amounted to 29.3 nM (input ligand: FMN 200 uM) and 458 nM (input ligand: none).

Values taken from the supplement of paper PMC9170038.
